Results published in the NTF2 design screens of Basanta et al. (2020).

Assay: protease stability score; higher = more stable; yeast display proteolysis, trypsin and chymotrypsin;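 also: relative to predicted unfolded state with 0 unfolded-like and 1 meaning tenfold more protease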

| Sequence | protease stability score |
| --- | --- |
| SEMEEVYKRWVDLFRHAMDTGNEDLHLHLLDPHVRININGVELIGRDDDRDHLERLRKELGVSRFEMRVRIRDVDIQGDKIRSETEFTVIFNGREIIIKTRLILEKVNGRWILRSLEYN | 1.39 |
| DESTKAAEDIFEIIREMLETGDEETTRRLFDPDAKIIIGDKEIHGRENIELFMRLWLKQFDHVHDMTIRRMEIQGDKVIMDTEIHGTINGQRRTIRTRWIVVKINGKWSIHEVYFT | 2.02 |
| DETTEIQEKLAKELMRLLLTGNEEEIMKNADPDVREHVLVDGKHINNIGREEVHRVRRELLEKVKNLRIRINRVEIQGEKVRMETTLHIDGQDIHVIYIFIIINGRIKEVHIEIR | 0.708 |
| DEDTREKRRILEESLHIFETGDWEAMLKNADPNVRSEIHIGDKRLEFHGMRNWLEEWLTRLEKIKNMTFRIHDIRRQGDKVHIDGDLHVNGKHSKVRIELIIVDGVIHTLFFFDH | 0.953 |
| SQIEEDIRRQLKRFNDALTTGDEDEIMNLFDPDVRWIQGNYEHHGREFYLEMFREWRTHSIRIDIDRMEIQGDKVTLHTRFTVDGEFNGRRITEQYELVFIARKIDGRWVFREVRIK | 2.4 |
| TEEEEHASRIARLWLDMLLTGDWHTLDRLLDPHVRLEVNGQERIGREQIIKFEEERKRQLRINDVRTRHIHSQGDKLHIVTEADGEIDGKRTNVDTRIQIKVVDGVVEEVKFDIK | 0.736 |
| DEEEKEIRHQAEHWFHIILTGDEDTLRNLADPNVRSVWVIGDYERHEHGMDEHNKILKEWRFEEYRRDSIHAINGRVHLDIRSVMTINGKRMSFRIHIDIHVVNGVRKSITIRIE | 0.702 |
| DEEKQDMDTAIKIFVEEYKTGDEENLLRNMDPEARVRQGDKHFHGREEVWKFWRRLFHDAGLDNVNVELRHITSQGNKIEVRGVLRIGDKELDVEFILKKVDGRWLIKFILFR | 1.91 |
| DELHKFAEEFMKIFVHNFFTGDWRTMHELLDPHVRLDFNGVEHIGRENVLKFWEEIRRRYDHFHIEVKRVETQGEKAHSDVHLEFRINGQEEHRKQHWHLDVINGRIHSFFVEVE | 2.03 |
| DEEEEFAKELIEEVTKTILTGDFRTFLELFDPNARLEFNGREIHGMEDWLKMMDELRREIWIHHNHNHRIEVQGDKAHTESRLDVSYNGQRYTLHSRLSIDVVDGRLKRLEYRTK | 1.5 |
| SEHEEDLERFAREWIHIFKTGDFKMFNKLADPNVRVHINGKDNHGMEQWKHLKDRHEKELGVDRVDIHVDDVRFIGDKIEMDVTVRQGEFSTRWHVELIVVDGRLKHVSFHVR | 1.16 |
| THEWREAREMIEVFLERIETGDEESLERLLDPHVRVHINGKDFHGRDEAIRKLIEMRHHSIHLKHINVQGDKVHNFGEWIVDFDGKKHTHKMILYISKVNGRWLIDSIHVE | 0.98 |
| SEDEEVVKEWIKVVLHSMVTGDEDDVRRLFDPHTRIEINGVLFIGRKWAETLARRVDHHHIETIEYHRSHVVDGVATVDGTFRGREEVDGRKIEHHFRIEFVIMKIDGRWVTQQMRIK | 1.56 |
| SEQEEITKKATEDMLRNIETGDPDMIDHLLDPDVRQEIIINGRSHENHGMEKLRKWLSTWHDEFKNVKYDLRTVEIIDGRVRIEGVLNVDGVDLHIEIRLVIVNGKLREVYHHVD | 1.36 |
| DHEDRLAEEIARFIYHYWETGDEEEISDLFDPHVRVEININGKRIEKVGREHFYHWFHYWRERFKNLKINFKRLDPVNGKVHVETRVHQGDKERRMILEFDVVNGRIRVFRMEVHEN | 2.5 |
| DEDEEMFHRAVRLLLEHSRTGDEELTTKMADPHVKVDINGRDLIGRESYSRWWSEKAEQMRIDFRFRRVEVFDGVIFIDFKLIVDVNGRRLEFELHILILKIDGRWIIKEVHVK | 0.68 |
| REEEKMMRHIFRLDVILELTGDEEKWKHYADPNVRVIFIFENVHIEHHGRDAWVRLLHHMRIDRIIIHRLRVFENHNQADTFVKGEINGRELDMETHFYVLVINGRRKEVELEVR | 1.46 |
| SEEDRDVRHFLEVWWHRVQTGDEDSLHELADPRMRVDINGRILHGREHISRFMIELTESFGATPEDFQIEHVDTVGNKVHIKTRIFIRQGNFNLIRDTEMIVLKVDGRWLLTEVRVR | 2.6 |

| Sequence | protease stability score |
| --- | --- |
| DEDEELVKKFFKEHSESNRTGDWHTIMKQADPNARIFINGVILHGRELFTEHMMRMVRRADHFHFHLEDMRVINGRAELDVHVHLNINGKIDNVETHFIVIKINGRWRLEESRFH | 0.661 |
| SEDEKHSEHAIHLIEHSMHTGDEKTLRDNIDPHVRVHINGRDVIGRELWMEILRRDLEELGVERVDFKTHHVEVFNGRMNIDGILTQGDKRVKVQIHYTKINGRWILEELIIR | 0.841 |
| SEDEELLHKVLNEFIHNVKTGDWEIITRLLDPHALLRVNGVNHIGREDLDRQLKKDFQEMRLHNIHVDDLKIQGEWIHVDTTLDIHINGVRVHFKAHIRVLKIDGRWIVHSREIR | 1.32 |
| SEEEELARHAFELWTRSMLTGDEHTMEKLFDPNTRLDINGRDHVGRELFLEFIHRLLREWRFRDVKLEDVKSVNGVLFLKVRLDVEFDGRRYSLTVELIVTKINGKWHMTEIKMH | 0.353 |
| DDHDEELQRIVEIIFRHISTGNFDHLYKYLDPNVRMIIWIGDKNITAHGREHMSEVLHKLWKHLRIKDVDLHDVKSQGEKAIVDTHVHGIIDGKDTHIKTTLIVIIVDGRLKQMEVEVK | 2.59 |
| SEEEEDARRMMEILIKTLKTGDWRTIRRLVDPNVRVDFNGVDDHGRENWLKHVLHIRFKRIYIRDVRVYDGRVHIHGEINIEFDGRSDHYEVEIHIDKVDGRWVITHILIV | 2.26 |
| DEWHEYNEKLFELWEKANKTGDERLLRLLIDPHARLHFNGKHFHGREEVARLMTELRVDRFEIKRMEIQGEKLTVEGREDVTQGDFRFESNVNIIFLKINGRWSLERQHSE | 0.944 |
| SHEEHHLYEVAEMLLRWWRTGDEDSLYKFIDPHARVEIGEYSVHGREHIVRLMSRHLREIRLKDTDVHRIDVINGQTVLNVRLRGEINGVDTNVDARLHVVVVDGVVHSIHIEHI | 1.24 |
| SEEEDQARKIMEILIHVFLTGDWHQLMRLLDPNTRYEIRFENHEEHNHGREDIVRWLIEFIEEMRTLVIIRHIEVQGDKAILDIELQLDINGREFRWKTLLHFRIVDGVLKMYYIHIE | 1.47 |
| SEEEDLVQKAFEIFVHDIRTGDEDSLIENADPNVRLLINGVIFHGREEFKFIMRHWRIRRIELHDYRIQGDKAHVESRMDIEFNGRIRITHVELVILKVNGQWLIHTIKVI | 0.454 |
| DDERRHTEKVLELWTRFLYTGDEHRMSELLDPNTQLRVGDKDLHGWHLFVHFISELIRKLGVDHLEVELKHADIINGRAELHVKFHFHTENHHTTINIIFFYEKIDGVWLIKSIEIK | 2.04 |
| DDMERHNRWFLRDLIHAIVTGDEELEERLFDPNAKVHIDGVTFIGRELVEFLRKRVDHRRMHVKRTDSQGEYLINHTELILHINGKDVRTDTVWIFHKFNGQWVVHTMEVK | 0.815 |
| TESEFMKEYANKHLTRHLETGDWKDFQRNVDPNARVDFNGVELIGREHAIKLFHEIRIEHLEIHDVKMQGDKLEVDGILHTRQGDKRHDLKVIIHMLKVDGKWVITEIEVR | 0.948 |
| DEDERAYEESVRTFLENNLTGNEEILHRLMDPHVKTDYGDKRYHGMEEATEMIRRLGVNHFHLNSVHHQGDKVHLHGRVIVNGREFQVHIESKKINGRWVIRKVVID | 1.27 |
| DEEDEVLKLAFEFIRHQLETGDEDTLNRYVDPHARFEVNGRDIHGRDRYNRFLEELYRKHGVEIKDVLLQDNKSQGDKIRIDIKINIDVNGREVNFDVHIIALKINGKWIHKRQIDI | 0.542 |
| REDEEWLERLLRIIEKAMRTGDEQLTKELFDPNVRLEVGDKIIIGWEELTKIMHEMRVRDSRIHRVRTVGDKVEADTTVNGEIDGREFETEVRIEMLKVDGQWVVDKVHFK | 1.89 |
| SEEDKSFEIMFKLFKEASDTGDEKTLSELFDPDTRIDIGDKHLHGREEAVRMWRELRIHDIRVKSFDIIGNKIHLDTHVNGLVNGRLHRTDSKIILLKVNGQWRIESYHVD | 1.77 |
| DHLEDTFRELTRILWEALHTGDWEIRRHYADPNARFQMHINGVELRDHGMDQLSRKYEEWYRRVDHYEVRIKDRRYQGDKMIIHVHIRVKINGKEIHYDVILYIIVVNGRIEEESEEVR | 1.34 |
